For test [1], the target named is fluorescein-labeled ALK peptide F1577…1587. As to the kind of experiment: fluorescence polarisation; fluorescein-labeled peptides and GST-PTBi in solution.
Test [2] concerns the target fluorescein-labeled ALK peptide G1473…1483. The description is as above.

Take “GST-fused NUMB PTB domain with the exon 3 insert (11 aa) (domain or fragment)”: the figures for the Kd in test [1] and in test [2] were 500 nM and 700 nM, respectively.

(Values after article PMC6927325.)
